Test results from the Human Domainome abundance scans (Beltran et al. 2025).
± gives the uncertainty stated by the source.

B1: Zinc finger MYM-type protein 6, residues 427 to 504; numbered along this chain, O95789 (parent)
chain: KLKCQHCNHLFATKPELLFYKGKMFLFCGKNCSDEYKKKNKVVAMCDYCKLQKIIKETVRFSGVDKPFCSEVCKFLSA

Variants of: B1
Assay: abundance fitness (aPCA) (normalised: wild type 0, dead -1); higher = more abundant; growth selection in yeast, the domain comes from the species named
Conditions: Homo sapiens

| Variant | abundance fitness |
| --- | --- |
| KLKCQHCNHLFATKPELLFYKGKMFLFCGKNCSDEYKKKNKVVAMCDYCKLQKIIKETCRFSGVDKPFCSEVCKFLSA | -0.452 ± 0.38 |
| KLKCQHCNHLFATKPELLFYKGKMFLFCGKNCSDEYKKKNKVVAMCDYCKLQKIIKETWRFSGVDKPFCSEVCKFLSA | -0.344 ± 0.17 |
| KLKCQHCNHLFATKPELLFYKGKMFLFCGKNCSDEYKKKNKVVAMCDYCKLQKIIKETQRFSGVDKPFCSEVCKFLSA | -0.416 ± 0.12 |
| KLKCQHCNHLFATKPELLFYKGKMFLFCGSNCSDEYKKKNKVVAMCDYCKLQKIIKETVRFSGVDKPFCSEVCKFLSA | -0.049 ± 0.032 |
| KLKCQHCNHLFATKPHLLFYKGKMFLFCGKNCSDEYKKKNKVVAMCDYCKLQKIIKETVRFSGVDKPFCSEVCKFLSA | -0.307 ± 0.19 |
| KLKCQHCNHLFATKPQLLFYKGKMFLFCGKNCSDEYKKKNKVVAMCDYCKLQKIIKETVRFSGVDKPFCSEVCKFLSA | -0.03 ± 0.041 |
| KLKCQHCNHLFATKPELLFYKFKMFLFCGKNCSDEYKKKNKVVAMCDYCKLQKIIKETVRFSGVDKPFCSEVCKFLSA | -0.254 ± 0.36 |
| KLKCQHCNHLFATKPELLFYKQKMFLFCGKNCSDEYKKKNKVVAMCDYCKLQKIIKETVRFSGVDKPFCSEVCKFLSA | -0.011 ± 0.044 |
| KLKCQHCNHLFATKPELLFYKGKMFLFCGKNCSDEYKKKNKVVAMCDYCKLQKIIKETVRFRGVDKPFCSEVCKFLSA | -0.01 ± 0.096 |
| KLKCQHGNHLFATKPELLFYKGKMFLFCGKNCSDEYKKKNKVVAMCDYCKLQKIIKETVRFSGVDKPFCSEVCKFLSA | -0.442 ± 0.03 |
| KLKCQHCNHLFATKPELLFYKGKMFLFCGKNCSDEYKKKNKVVAMCDYCKLQKIIKETVRFSGVDKPFCSEVCKCLSA | 0.677 ± 0.09 |
| KLKCQHCNHLFATKPELLFYKGKMFLFCGKNCSDEYKKKNKVVAMCDYCKLQKIIKETVRFSGVDKPFCSEVCKVLSA | 0.256 ± 0.063 |
| KLKCQHCNHLFATKPELLFYKGKMFLFCGKNCSDEYKKKNKVVAMCDYCKLQKIIKETVRFSGVDKPFCSEVCKRLSA | 0.499 ± 0.063 |
| KLKCQHCNHLFATKPELLFYKGKMFLFCGKNCSDEYKKKNKVVAMCDYCKLQKIIKETVRFSGVDKPFCSEVCKQLSA | 0.096 ± 0.28 |
| KLKCQHCNHLFATKPELLFYKGKMFLFCGKNCSMEYKKKNKVVAMCDYCKLQKIIKETVRFSGVDKPFCSEVCKFLSA | -0.091 ± 0.055 |
| KLKCQHCNHLFATKPETLFYKGKMFLFCGKNCSDEYKKKNKVVAMCDYCKLQKIIKETVRFSGVDKPFCSEVCKFLSA | 0.086 ± 0.041 |
| KLKCQHCNHLFATKPEALFYKGKMFLFCGKNCSDEYKKKNKVVAMCDYCKLQKIIKETVRFSGVDKPFCSEVCKFLSA | -0.003 ± 0.032 |
| KLKCQHCNHLFATKPELLFYKGKMFLFCGKNCSDEYKKKNKVVVMCDYCKLQKIIKETVRFSGVDKPFCSEVCKFLSA | -0.319 ± 0.19 |

| Variant | abundance fitness |
| --- | --- |
| KLKCQHCNHLFATKPELLFYKGKMFLFCGKNCSDEYKKKNKVVMMCDYCKLQKIIKETVRFSGVDKPFCSEVCKFLSA | 0.39 ± 0.28 |
| KLKCQHCNHLFATKPELLFYKGKMFLFCGKNCSDEYKKKNKVVQMCDYCKLQKIIKETVRFSGVDKPFCSEVCKFLSA | 0.054 ± 0.21 |
| KLKCQHCNHLFATKPELLFYKGKMFLFCGKNCSDEYKKKNKVVAMCDYCKLQKIIWETVRFSGVDKPFCSEVCKFLSA | -0.16 ± 0.092 |
| KLKCQHCNHLFATKPELVFYKGKMFLFCGKNCSDEYKKKNKVVAMCDYCKLQKIIKETVRFSGVDKPFCSEVCKFLSA | -0.02 ± 0.037 |
| KLKCQHCNHLFATKPELLFYKGKWFLFCGKNCSDEYKKKNKVVAMCDYCKLQKIIKETVRFSGVDKPFCSEVCKFLSA | -0.065 ± 0.034 |
| KLKCQHCNHLFATKPELLFYKGKGFLFCGKNCSDEYKKKNKVVAMCDYCKLQKIIKETVRFSGVDKPFCSEVCKFLSA | -0.059 ± 0.03 |
| KLKCQHCNHLFATKPELLFYKGKMFLFCGKNCSDEYKKKNKVVAMCDYCKLQKIIKETVRFSFVDKPFCSEVCKFLSA | -0.179 ± 0.47 |
| KLKCQHCNHLFATKPELLFYKGVMFLFCGKNCSDEYKKKNKVVAMCDYCKLQKIIKETVRFSGVDKPFCSEVCKFLSA | -0.091 ± 0.036 |
| KLKCQHCNHLFATKPELLFYKGSMFLFCGKNCSDEYKKKNKVVAMCDYCKLQKIIKETVRFSGVDKPFCSEVCKFLSA | -0.058 ± 0.039 |
| KLKCQHCNHLFATLPELLFYKGKMFLFCGKNCSDEYKKKNKVVAMCDYCKLQKIIKETVRFSGVDKPFCSEVCKFLSA | -0.101 ± 0.033 |
| KLKCQHCNHLFATKPELLFYKGKMFLFCGKSCSDEYKKKNKVVAMCDYCKLQKIIKETVRFSGVDKPFCSEVCKFLSA | -0.042 ± 0.034 |
| KLKCQHCNHLFATKPELLFYKGKMFLFCGKNCSDEYKKKNKVVAMCDYCKLQKIIKETVRFSGADKPFCSEVCKFLSA | -0.302 ± 0.13 |
| KLKCQHCNHLFATKPELLFYKGKMFLFCGKNCSDEYKKKNKVVAMCDYCKLQKIIKETVRFSGYDKPFCSEVCKFLSA | 0.387 ± 0.21 |
| KLKCQHCNHLFATKPELLFYKGKMFLFCGKNCSDEYKKKNKVVAMCDYCKLQKIIKETVRFSGVLKPFCSEVCKFLSA | -0.105 ± 0.099 |
| KLKCQHCNHLFATKPELLFYKGKMFLFCGKNCSDEWKKKNKVVAMCDYCKLQKIIKETVRFSGVDKPFCSEVCKFLSA | -0.042 ± 0.033 |
| KLKCQHCNHLFATKPELLFYKGKMFLFCGKNCSDEDKKKNKVVAMCDYCKLQKIIKETVRFSGVDKPFCSEVCKFLSA | -0.453 ± 0.088 |
| KLKCQHCNHLFATKPELLFYKGKMFLFCGKNCSDEVKKKNKVVAMCDYCKLQKIIKETVRFSGVDKPFCSEVCKFLSA | -0.15 ± 0.038 |
